Test results from article PMC2640967.

Target: Vps24 (full-length, two-hybrid fusion) (A. nidulans)
Assay: two-hybrid

Row | Molecule | fold lower β-galactosidase activity than with DidB^Did2 [fold] | fold β-galactosidase activity with Vps24 over that with DidB [fold]
1 | Vps4 (two-hybrid fusion) (enzyme) | 30 | 
2 | PalB-(1–130) prey (two-hybrid fusion) (domain or fragment) MSRTSSAPSQKSLISRALKAERDVITASSQSQALDAAIDAAEHYMKALALTSSSKDRNVLDAKCKEWLTRAEKIKGSEDWRSVAQSRRSRLRTPASTRKLTTREDIILLQGAKLNGFIFPPWKAEPSLTE |  | 10
